Key:
[1] = target: Grb2 SH2 (UniProt P62993); assay: SH2 binding enrichment of the phosphorylated peptide, bacterial display (enrichment ratio); higher = better substrate or ligand; peptides without Tyr show the background
[2] = target: SHP2-C SH2; assay: as above
[3] = target: c-Src SH2; assay: as above
[4] = target: EPHB1 (UniProt P54762); assay: phosphorylation enrichment, bacterial display (enrichment ratio); higher = better substrate or ligand; peptides without Tyr show the background
[5] = target: Fyn (UniProt P06241); assay: as above
[6] = target: FGFR1 (UniProt P11362); assay: as above
[7] = test system: c-Abl (mouse); assay: as above
[8] = target: Jak2 (UniProt O60674); assay: as above
[9] = target: Fes (UniProt P07332); assay: as above
[10] = test system: Fer (mouse); assay: as above
[11] = target: EPHB2 (UniProt P29323); assay: as above
[12] = target: Hck (UniProt P08631); assay: as above
[13] = target: MERTK (UniProt Q12866); assay: as above
[14] = target: FGFR3 (UniProt P22607); assay: as above
[15] = test system: c-Src; assay: as above
[16] = test system: AncSZ; assay: as above
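For SH2 binding enrichment of the phosphorylated peptide, bacterial display in this document: peptide library displayed on the E. coli surface as eCPX fusions, selected cells deep-sequenced, score is each peptide's frequency after selection divided by its frequency in the input.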
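For phosphorylation enrichment, bacterial display in this document: 11-residue human phosphosite peptides and single-mutation variants displayed on the E. coli surface, counted by deep sequencing, each peptide's frequency after selection divided by its frequency in the unselected input library; frequency after pTyr selection over input frequency; kinase dosed for 20-30% of maximal phosphorylation in three min.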

Sequence of Jak2 (O60674 whole entry, looked up): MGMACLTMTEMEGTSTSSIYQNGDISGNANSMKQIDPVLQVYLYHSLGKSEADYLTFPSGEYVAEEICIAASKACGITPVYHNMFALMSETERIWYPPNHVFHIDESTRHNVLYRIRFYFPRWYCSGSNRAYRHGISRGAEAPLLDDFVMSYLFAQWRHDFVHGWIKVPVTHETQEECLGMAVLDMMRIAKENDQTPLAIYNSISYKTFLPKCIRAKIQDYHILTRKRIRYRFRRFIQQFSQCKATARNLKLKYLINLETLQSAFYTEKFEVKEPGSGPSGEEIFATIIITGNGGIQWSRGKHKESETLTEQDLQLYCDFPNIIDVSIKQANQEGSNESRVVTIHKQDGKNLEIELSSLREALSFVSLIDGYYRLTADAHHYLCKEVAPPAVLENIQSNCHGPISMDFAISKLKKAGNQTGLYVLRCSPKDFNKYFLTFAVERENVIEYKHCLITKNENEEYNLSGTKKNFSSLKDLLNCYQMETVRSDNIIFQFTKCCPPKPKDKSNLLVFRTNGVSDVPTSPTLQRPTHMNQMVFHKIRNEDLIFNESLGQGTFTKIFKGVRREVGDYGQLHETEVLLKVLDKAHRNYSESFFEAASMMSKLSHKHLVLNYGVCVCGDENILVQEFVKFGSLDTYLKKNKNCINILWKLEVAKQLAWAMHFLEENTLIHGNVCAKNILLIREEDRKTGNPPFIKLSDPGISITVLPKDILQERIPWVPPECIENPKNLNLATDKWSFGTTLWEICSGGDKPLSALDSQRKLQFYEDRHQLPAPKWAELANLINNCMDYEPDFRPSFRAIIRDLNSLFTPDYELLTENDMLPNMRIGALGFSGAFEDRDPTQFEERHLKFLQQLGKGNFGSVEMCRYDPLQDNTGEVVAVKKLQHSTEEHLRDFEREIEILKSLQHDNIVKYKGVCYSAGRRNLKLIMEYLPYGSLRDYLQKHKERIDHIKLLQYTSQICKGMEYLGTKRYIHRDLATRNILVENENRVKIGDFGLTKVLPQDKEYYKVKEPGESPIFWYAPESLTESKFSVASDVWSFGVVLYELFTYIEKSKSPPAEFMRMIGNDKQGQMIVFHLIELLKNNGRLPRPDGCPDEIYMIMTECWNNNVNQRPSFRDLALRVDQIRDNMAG
Sequence of MERTK (Q12866 whole entry, looked up): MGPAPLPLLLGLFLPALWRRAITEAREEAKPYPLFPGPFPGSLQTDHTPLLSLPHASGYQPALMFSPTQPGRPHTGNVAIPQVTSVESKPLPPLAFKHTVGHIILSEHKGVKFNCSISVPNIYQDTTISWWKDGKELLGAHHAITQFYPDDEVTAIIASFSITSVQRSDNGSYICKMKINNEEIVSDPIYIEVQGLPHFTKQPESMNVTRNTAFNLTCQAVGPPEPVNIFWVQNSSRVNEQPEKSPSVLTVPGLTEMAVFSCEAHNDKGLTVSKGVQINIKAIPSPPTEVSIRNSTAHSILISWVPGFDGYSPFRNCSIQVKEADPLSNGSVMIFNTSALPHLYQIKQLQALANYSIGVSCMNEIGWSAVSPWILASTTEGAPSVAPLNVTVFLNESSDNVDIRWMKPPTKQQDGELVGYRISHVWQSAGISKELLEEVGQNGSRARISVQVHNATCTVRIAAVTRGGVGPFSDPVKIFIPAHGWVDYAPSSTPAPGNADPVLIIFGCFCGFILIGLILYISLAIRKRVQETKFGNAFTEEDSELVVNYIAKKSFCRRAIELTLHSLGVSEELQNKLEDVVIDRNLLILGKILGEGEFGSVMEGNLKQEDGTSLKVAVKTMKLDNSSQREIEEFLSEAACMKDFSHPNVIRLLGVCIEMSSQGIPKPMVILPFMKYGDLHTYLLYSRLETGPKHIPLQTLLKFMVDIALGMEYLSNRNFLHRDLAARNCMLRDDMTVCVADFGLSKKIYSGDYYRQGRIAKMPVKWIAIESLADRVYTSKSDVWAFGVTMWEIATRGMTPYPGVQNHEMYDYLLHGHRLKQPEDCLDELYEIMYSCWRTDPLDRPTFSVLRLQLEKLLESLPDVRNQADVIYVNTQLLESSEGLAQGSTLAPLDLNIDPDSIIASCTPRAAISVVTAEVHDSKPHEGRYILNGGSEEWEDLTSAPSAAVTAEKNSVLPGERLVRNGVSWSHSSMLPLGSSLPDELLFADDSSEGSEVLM
Sequence of Hck (P08631 whole entry, looked up): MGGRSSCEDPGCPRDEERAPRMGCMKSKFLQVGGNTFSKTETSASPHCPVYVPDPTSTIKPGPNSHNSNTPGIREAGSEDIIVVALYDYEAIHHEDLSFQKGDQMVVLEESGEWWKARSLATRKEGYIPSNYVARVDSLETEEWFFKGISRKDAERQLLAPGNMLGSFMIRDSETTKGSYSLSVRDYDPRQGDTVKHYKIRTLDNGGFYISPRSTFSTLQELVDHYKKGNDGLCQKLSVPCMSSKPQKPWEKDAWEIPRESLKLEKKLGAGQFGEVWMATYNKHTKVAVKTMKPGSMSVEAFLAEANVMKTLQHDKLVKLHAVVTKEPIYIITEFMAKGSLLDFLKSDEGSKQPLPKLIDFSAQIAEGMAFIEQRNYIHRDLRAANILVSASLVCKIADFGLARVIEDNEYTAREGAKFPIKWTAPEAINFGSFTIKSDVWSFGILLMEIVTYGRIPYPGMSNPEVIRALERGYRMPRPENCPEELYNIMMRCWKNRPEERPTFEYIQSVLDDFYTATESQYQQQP
Sequence of FGFR3 (P22607 whole entry, looked up): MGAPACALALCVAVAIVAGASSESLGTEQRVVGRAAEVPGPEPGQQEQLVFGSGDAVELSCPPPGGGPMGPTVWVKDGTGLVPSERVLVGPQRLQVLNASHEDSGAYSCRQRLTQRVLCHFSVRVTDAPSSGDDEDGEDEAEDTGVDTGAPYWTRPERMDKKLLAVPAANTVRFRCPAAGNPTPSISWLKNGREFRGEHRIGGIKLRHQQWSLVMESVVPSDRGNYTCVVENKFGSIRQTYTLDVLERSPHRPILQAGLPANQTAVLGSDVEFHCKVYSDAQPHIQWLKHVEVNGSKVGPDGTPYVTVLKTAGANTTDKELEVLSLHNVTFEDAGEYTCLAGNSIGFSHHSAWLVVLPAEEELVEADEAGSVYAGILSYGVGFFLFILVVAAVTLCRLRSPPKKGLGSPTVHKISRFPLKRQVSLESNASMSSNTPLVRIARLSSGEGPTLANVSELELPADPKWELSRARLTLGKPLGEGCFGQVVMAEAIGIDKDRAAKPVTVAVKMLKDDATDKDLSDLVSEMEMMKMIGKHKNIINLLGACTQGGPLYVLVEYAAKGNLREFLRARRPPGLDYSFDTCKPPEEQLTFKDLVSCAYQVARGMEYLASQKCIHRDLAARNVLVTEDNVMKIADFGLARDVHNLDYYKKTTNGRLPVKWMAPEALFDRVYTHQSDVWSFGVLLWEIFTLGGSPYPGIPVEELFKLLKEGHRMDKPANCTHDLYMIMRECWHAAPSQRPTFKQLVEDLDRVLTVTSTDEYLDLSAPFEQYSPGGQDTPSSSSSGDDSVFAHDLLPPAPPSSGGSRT
Sequence of Fes (P07332 whole entry, looked up): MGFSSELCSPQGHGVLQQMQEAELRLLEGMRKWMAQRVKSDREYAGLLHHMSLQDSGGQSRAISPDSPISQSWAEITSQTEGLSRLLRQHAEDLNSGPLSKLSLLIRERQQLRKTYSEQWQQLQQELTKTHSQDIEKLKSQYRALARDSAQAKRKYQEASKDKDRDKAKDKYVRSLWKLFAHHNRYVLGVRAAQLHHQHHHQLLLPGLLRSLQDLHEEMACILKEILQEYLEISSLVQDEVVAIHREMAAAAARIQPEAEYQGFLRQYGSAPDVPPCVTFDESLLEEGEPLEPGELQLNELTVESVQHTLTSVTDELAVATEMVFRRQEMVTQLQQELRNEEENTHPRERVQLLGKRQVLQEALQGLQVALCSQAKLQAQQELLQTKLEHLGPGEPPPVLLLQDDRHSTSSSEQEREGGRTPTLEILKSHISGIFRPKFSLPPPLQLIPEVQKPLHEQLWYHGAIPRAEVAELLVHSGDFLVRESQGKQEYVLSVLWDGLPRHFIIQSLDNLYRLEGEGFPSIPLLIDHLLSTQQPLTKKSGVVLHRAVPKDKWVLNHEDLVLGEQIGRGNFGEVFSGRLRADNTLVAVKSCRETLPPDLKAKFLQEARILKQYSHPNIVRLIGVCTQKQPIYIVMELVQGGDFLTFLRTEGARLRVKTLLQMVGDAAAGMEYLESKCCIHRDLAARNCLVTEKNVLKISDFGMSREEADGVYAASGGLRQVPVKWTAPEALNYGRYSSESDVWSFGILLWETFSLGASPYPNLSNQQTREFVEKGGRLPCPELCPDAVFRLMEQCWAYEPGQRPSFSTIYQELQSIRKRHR
Sequence of Fyn (P06241 whole entry, looked up): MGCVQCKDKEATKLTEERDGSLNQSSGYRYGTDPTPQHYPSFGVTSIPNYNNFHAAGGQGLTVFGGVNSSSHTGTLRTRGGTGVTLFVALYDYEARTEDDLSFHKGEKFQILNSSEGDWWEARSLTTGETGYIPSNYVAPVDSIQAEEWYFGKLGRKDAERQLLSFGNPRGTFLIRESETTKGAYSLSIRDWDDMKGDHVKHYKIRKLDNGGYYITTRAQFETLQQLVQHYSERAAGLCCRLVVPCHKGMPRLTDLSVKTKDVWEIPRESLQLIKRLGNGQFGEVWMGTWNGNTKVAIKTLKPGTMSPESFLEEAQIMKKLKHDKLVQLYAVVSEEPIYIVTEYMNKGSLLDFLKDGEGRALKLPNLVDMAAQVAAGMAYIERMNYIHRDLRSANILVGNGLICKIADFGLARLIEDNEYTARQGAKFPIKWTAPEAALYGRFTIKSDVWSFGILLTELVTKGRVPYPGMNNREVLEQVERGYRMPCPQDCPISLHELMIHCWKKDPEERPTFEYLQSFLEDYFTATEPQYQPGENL
Sequence of Grb2 SH2 (P62993 whole entry, looked up): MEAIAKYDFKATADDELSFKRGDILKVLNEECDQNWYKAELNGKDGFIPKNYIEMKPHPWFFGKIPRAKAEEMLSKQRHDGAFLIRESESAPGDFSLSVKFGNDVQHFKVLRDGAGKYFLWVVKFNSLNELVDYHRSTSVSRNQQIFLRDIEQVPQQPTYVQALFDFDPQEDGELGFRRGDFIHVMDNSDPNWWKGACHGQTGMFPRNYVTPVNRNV

For DTKPAYQNLRQ [BOD1_Y82], the SH2 binding enrichment [1] was 11.8, the SH2 binding enrichment [2] was 0.666 and the SH2 binding enrichment [3] was 0.864. For the same sequence, the phosphorylation enrichment [4] was 0.38, the phosphorylation enrichment [5] was 0.383 and the phosphorylation enrichment [6] was 0.434. The phosphorylation enrichment [7] was 0.719, the phosphorylation enrichment [8] was 0.524 and the phosphorylation enrichment [9] was 0.541. For the same sequence, the phosphorylation enrichment [10] was 0.385, the phosphorylation enrichment [11] was 0.35 and the phosphorylation enrichment [12] was 0.349. It also gave a phosphorylation enrichment [13] of 0.313, a phosphorylation enrichment [14] of 0.452 and a phosphorylation enrichment [15] of 0.38. The phosphorylation enrichment [16] was 0.462.

For LASLIYNFVLF [AQP6_Y231], the SH2 binding enrichment [1] was 1.11, the SH2 binding enrichment [2] was 0.989 and the SH2 binding enrichment [3] was 0.692. The phosphorylation enrichment [4] was 1.93, the phosphorylation enrichment [5] was 7.62 and the phosphorylation enrichment [6] was 3.53. The phosphorylation enrichment [7] was 4.1, the phosphorylation enrichment [8] was 1.51 and the phosphorylation enrichment [9] was 2.2. For the same sequence, the phosphorylation enrichment [10] was 14.5, the phosphorylation enrichment [11] was 4.52 and the phosphorylation enrichment [12] was 5.89. For the same sequence, the phosphorylation enrichment [13] was 7.85, the phosphorylation enrichment [14] was 3.34 and the phosphorylation enrichment [15] was 7.23. It also gave a phosphorylation enrichment [16] of 1.73.

Work on MPVDGYISGLL [PAK6_Y81] yielded an SH2 binding enrichment [1] of 0.903, an SH2 binding enrichment [2] of 0.661 and an SH2 binding enrichment [3] of 0.511. For the same sequence, the phosphorylation enrichment [4] was 0.447, the phosphorylation enrichment [5] was 0.524 and the phosphorylation enrichment [6] was 0.583. For the same sequence, the phosphorylation enrichment [7] was 0.622, the phosphorylation enrichment [8] was 0.817 and the phosphorylation enrichment [9] was 0.953. For the same sequence, the phosphorylation enrichment [10] was 0.522, the phosphorylation enrichment [11] was 0.59 and the phosphorylation enrichment [12] was 0.441. For the same sequence, the phosphorylation enrichment [13] was 0.41, the phosphorylation enrichment [14] was 0.626 and the phosphorylation enrichment [15] was 0.487. It also gave a phosphorylation enrichment [16] of 0.716.

For DIMDLYNQPEP [IL36A_Y96], the SH2 binding enrichment [1] was 0.879, the SH2 binding enrichment [2] was 0.597 and the SH2 binding enrichment [3] was 0.557. For the same sequence, the phosphorylation enrichment [4] was 0.547, the phosphorylation enrichment [5] was 0.69 and the phosphorylation enrichment [6] was 0.491. It also gave a phosphorylation enrichment [7] of 0.852, a phosphorylation enrichment [8] of 1.55 and a phosphorylation enrichment [9] of 1.21. The phosphorylation enrichment [10] was 0.66, the phosphorylation enrichment [11] was 0.602 and the phosphorylation enrichment [12] was 0.817. The phosphorylation enrichment [13] was 0.481, the phosphorylation enrichment [14] was 0.688 and the phosphorylation enrichment [15] was 1.06. The phosphorylation enrichment [16] was 1.5.

For FKDYFYCWNTF [AICDA_Y146], the SH2 binding enrichment [1] was 0.878, the SH2 binding enrichment [2] was 0.662 and the SH2 binding enrichment [3] was 0.474. The phosphorylation enrichment [4] was 4.05, the phosphorylation enrichment [5] was 0.652 and the phosphorylation enrichment [6] was 8.79. It also gave a phosphorylation enrichment [7] of 1.22, a phosphorylation enrichment [8] of 3.71 and a phosphorylation enrichment [9] of 1.34. For the same sequence, the phosphorylation enrichment [10] was 1.46, the phosphorylation enrichment [11] was 2.87 and the phosphorylation enrichment [12] was 0.557. The phosphorylation enrichment [13] was 2.8, the phosphorylation enrichment [14] was 7.02 and the phosphorylation enrichment [15] was 1.41. For the same sequence, the phosphorylation enrichment [16] was 2.04.

KVDKEYEVHVR [GHR_Y226_R229H] gave an SH2 binding enrichment [1] of 0.804, an SH2 binding enrichment [2] of 0.566 and an SH2 binding enrichment [3] of 0.52. The phosphorylation enrichment [4] was 0.68, the phosphorylation enrichment [5] was 0.485 and the phosphorylation enrichment [6] was 0.474. The phosphorylation enrichment [7] was 0.576, the phosphorylation enrichment [8] was 0.725 and the phosphorylation enrichment [9] was 0.956. For the same sequence, the phosphorylation enrichment [10] was 0.498, the phosphorylation enrichment [11] was 0.548 and the phosphorylation enrichment [12] was 0.497. The phosphorylation enrichment [13] was 0.416, the phosphorylation enrichment [14] was 0.555 and the phosphorylation enrichment [15] was 0.444. The phosphorylation enrichment [16] was 0.934.

Sequence RMGNLYDIDEN [GRIN2A_Y1246_D1251N] has an SH2 binding enrichment [1] of 0.805, an SH2 binding enrichment [2] of 0.613 and an SH2 binding enrichment [3] of 1.2. For the same sequence, the phosphorylation enrichment [4] was 1.16, the phosphorylation enrichment [5] was 4.25 and the phosphorylation enrichment [6] was 0.876. For the same sequence, the phosphorylation enrichment [7] was 2.11, the phosphorylation enrichment [8] was 3.11 and the phosphorylation enrichment [9] was 2.16. For the same sequence, the phosphorylation enrichment [10] was 0.864, the phosphorylation enrichment [11] was 1.44 and the phosphorylation enrichment [12] was 1.86. It also gave a phosphorylation enrichment [13] of 1.03, a phosphorylation enrichment [14] of 1.22 and a phosphorylation enrichment [15] of 3.1. For the same sequence, the phosphorylation enrichment [16] was 1.52.

Sequence PDKRIYQFTAS [SKAP2_Y197_A202S] has an SH2 binding enrichment [1] of 0.953, an SH2 binding enrichment [2] of 0.613 and an SH2 binding enrichment [3] of 0.642. The phosphorylation enrichment [4] was 0.491, the phosphorylation enrichment [5] was 0.826 and the phosphorylation enrichment [6] was 0.831. The phosphorylation enrichment [7] was 0.551, the phosphorylation enrichment [8] was 0.637 and the phosphorylation enrichment [9] was 0.684. It also gave a phosphorylation enrichment [10] of 0.802, a phosphorylation enrichment [11] of 0.629 and a phosphorylation enrichment [12] of 0.698. For the same sequence, the phosphorylation enrichment [13] was 0.846, the phosphorylation enrichment [14] was 0.649 and the phosphorylation enrichment [15] was 0.765. It also gave a phosphorylation enrichment [16] of 0.691.

With GTYVIYVRFSG [FLNB_Y1687_G1691S] the SH2 binding enrichment [1] was 1.05, the SH2 binding enrichment [2] was 1.44 and the SH2 binding enrichment [3] was 0.587. For the same sequence, the phosphorylation enrichment [4] was 0.696, the phosphorylation enrichment [5] was 0.509 and the phosphorylation enrichment [6] was 0.447. It also gave a phosphorylation enrichment [7] of 0.941, a phosphorylation enrichment [8] of 1.31 and a phosphorylation enrichment [9] of 1.3. It also gave a phosphorylation enrichment [10] of 0.639, a phosphorylation enrichment [11] of 0.543 and a phosphorylation enrichment [12] of 0.514. It also gave a phosphorylation enrichment [13] of 0.455, a phosphorylation enrichment [14] of 0.828 and a phosphorylation enrichment [15] of 0.532. The phosphorylation enrichment [16] was 1.26.

Sequence AGGTRYRYVSQ [UCN3_Y95_R91G] has an SH2 binding enrichment [1] of 0.777, an SH2 binding enrichment [2] of 0.438 and an SH2 binding enrichment [3] of 0.438. The phosphorylation enrichment [4] was 0.574, the phosphorylation enrichment [5] was 0.491 and the phosphorylation enrichment [6] was 0.397. It also gave a phosphorylation enrichment [7] of 0.474, a phosphorylation enrichment [8] of 0.417 and a phosphorylation enrichment [9] of 0.616. It also gave a phosphorylation enrichment [10] of 0.377, a phosphorylation enrichment [11] of 0.525 and a phosphorylation enrichment [12] of 0.435. It also gave a phosphorylation enrichment [13] of 0.519, a phosphorylation enrichment [14] of 0.381 and a phosphorylation enrichment [15] of 0.507. For the same sequence, the phosphorylation enrichment [16] was 0.529.

PNRILYGDFRQ [MYH6_Y717] showed an SH2 binding enrichment [1] of 0.918, an SH2 binding enrichment [2] of 0.878 and an SH2 binding enrichment [3] of 0.568. For the same sequence, the phosphorylation enrichment [4] was 0.538, the phosphorylation enrichment [5] was 6.85 and the phosphorylation enrichment [6] was 0.501. For the same sequence, the phosphorylation enrichment [7] was 0.658, the phosphorylation enrichment [8] was 0.862 and the phosphorylation enrichment [9] was 1.02. It also gave a phosphorylation enrichment [10] of 0.5, a phosphorylation enrichment [11] of 0.731 and a phosphorylation enrichment [12] of 4.43. For the same sequence, the phosphorylation enrichment [13] was 0.622, the phosphorylation enrichment [14] was 0.688 and the phosphorylation enrichment [15] was 5.52. It also gave a phosphorylation enrichment [16] of 0.823.

Work on KPGVNYFFRVS yielded an SH2 binding enrichment [1] of 0.863, an SH2 binding enrichment [2] of 0.749 and an SH2 binding enrichment [3] of 0.463. For the same sequence, the phosphorylation enrichment [4] was 0.495, the phosphorylation enrichment [5] was 0.348 and the phosphorylation enrichment [6] was 0.376. For the same sequence, the phosphorylation enrichment [7] was 0.73, the phosphorylation enrichment [8] was 0.986 and the phosphorylation enrichment [9] was 1.32. For the same sequence, the phosphorylation enrichment [10] was 0.41, the phosphorylation enrichment [11] was 0.472 and the phosphorylation enrichment [12] was 0.479. The phosphorylation enrichment [13] was 0.358, the phosphorylation enrichment [14] was 0.697 and the phosphorylation enrichment [15] was 0.374. It also gave a phosphorylation enrichment [16] of 1.06.

YGSSSYRGAGG [RPA2_Y14_G15R] gave an SH2 binding enrichment [1] of 0.877, an SH2 binding enrichment [2] of 0.507 and an SH2 binding enrichment [3] of 0.49. For the same sequence, the phosphorylation enrichment [4] was 0.393, the phosphorylation enrichment [5] was 0.386 and the phosphorylation enrichment [6] was 0.343. It also gave a phosphorylation enrichment [7] of 0.623, a phosphorylation enrichment [8] of 0.528 and a phosphorylation enrichment [9] of 0.483. The phosphorylation enrichment [10] was 0.465, the phosphorylation enrichment [11] was 0.334 and the phosphorylation enrichment [12] was 0.443. The phosphorylation enrichment [13] was 0.369, the phosphorylation enrichment [14] was 0.409 and the phosphorylation enrichment [15] was 0.412. For the same sequence, the phosphorylation enrichment [16] was 0.491.

MRTMGYMPTEM [CABP5_Y62] gave an SH2 binding enrichment [1] of 0.789, an SH2 binding enrichment [2] of 1.08 and an SH2 binding enrichment [3] of 0.407. For the same sequence, the phosphorylation enrichment [4] was 0.428, the phosphorylation enrichment [5] was 0.388 and the phosphorylation enrichment [6] was 0.63. For the same sequence, the phosphorylation enrichment [7] was 0.447, the phosphorylation enrichment [8] was 0.507 and the phosphorylation enrichment [9] was 0.732. For the same sequence, the phosphorylation enrichment [10] was 0.459, the phosphorylation enrichment [11] was 0.509 and the phosphorylation enrichment [12] was 0.456. For the same sequence, the phosphorylation enrichment [13] was 0.344, the phosphorylation enrichment [14] was 0.538 and the phosphorylation enrichment [15] was 0.355. It also gave a phosphorylation enrichment [16] of 0.683.

Sequence TDHLRYFDSNK [ARAP1_Y359] has an SH2 binding enrichment [1] of 0.968, an SH2 binding enrichment [2] of 0.714 and an SH2 binding enrichment [3] of 0.507. For the same sequence, the phosphorylation enrichment [4] was 0.611, the phosphorylation enrichment [5] was 0.428 and the phosphorylation enrichment [6] was 0.414. The phosphorylation enrichment [7] was 1.14, the phosphorylation enrichment [8] was 0.665 and the phosphorylation enrichment [9] was 0.794. The phosphorylation enrichment [10] was 0.456, the phosphorylation enrichment [11] was 0.442 and the phosphorylation enrichment [12] was 0.451. For the same sequence, the phosphorylation enrichment [13] was 0.466, the phosphorylation enrichment [14] was 0.573 and the phosphorylation enrichment [15] was 0.41. It also gave a phosphorylation enrichment [16] of 1.04.

Work on ATHRGYDLDNP [MMUT_Y146_S148L] yielded an SH2 binding enrichment [1] of 0.721, an SH2 binding enrichment [2] of 0.654 and an SH2 binding enrichment [3] of 0.384. For the same sequence, the phosphorylation enrichment [4] was 0.459, the phosphorylation enrichment [5] was 0.392 and the phosphorylation enrichment [6] was 0.409. It also gave a phosphorylation enrichment [7] of 0.614, a phosphorylation enrichment [8] of 0.698 and a phosphorylation enrichment [9] of 0.79. For the same sequence, the phosphorylation enrichment [10] was 0.413, the phosphorylation enrichment [11] was 0.434 and the phosphorylation enrichment [12] was 0.411. It also gave a phosphorylation enrichment [13] of 0.343, a phosphorylation enrichment [14] of 0.727 and a phosphorylation enrichment [15] of 0.377. The phosphorylation enrichment [16] was 0.64.
